Our source for the self-cleavage values is the RNAGym collection of RNA variant scans (doi:10.7554/elife.80360).

To fix the notation:
B1: CPEB3 Ribozyme (parent)
chain: GGGGGCCACAGCAGAAGCGUUCACGUCGCGGCCCCUGUCAGAUUCUGGUGAAUCUGCGAAUUCUGCUGU

The variants in this data set derive from B1. Description: self-cleavage, relative activity (ratio to wild type); higher = more cleavage; co-transcriptional.
As to GGGGGCCACAGCAGAUGCGUUCACGUCGCGGCCCCUGUCAGAUUCUGGUGAAUCUGCUAAUUCUGCUGU [A16U G58U], the self-cleavage came out at 0.814.

GGGGGCCACAGCAGAUGCGUUCACGUCGCGGCCCCUGUCAGAUUCUGGUGAAUCUGCGAAUACUGCUGU [A16U U62A]: the self-cleavage was 0.74.

Consider GGGGGCCACAGCAGAUGCGUUCACGUCGCGGCCCCUGUCAGAUUGUGGUGAAUCUGCGAAUUCUGCUGU [A16U C45G], for which the self-cleavage stood at 0.839.

For GGGGGCCACAGCAGAUGCGUUCACGUCGCGGCCCCUGUCAGAUUUUGGUGAAUCUGCGAAUUCUGCUGU [A16U C45U], the self-cleavage was found to be 0.893.

GGGGGCCACAGCAGAAACGUUCACGUCGCGGCCCCUGUCAGAUUCUGGUGAAUCUGCGACUUCUGCUGU [G17A A60C]: the self-cleavage is 0.189.

Regarding GGGGGCCACAGCAGAAACGUUCACGUCGCGGCCCCUGUCAGAUUCUGGUGAAUCUGCGAGUUCUGCUGU [G17A A60G], the self-cleavage came to 0.202.

On to GGGGGCCACAGCAGAAACGUUCACGUCGCGGCCCUUGUCAGAUUCUGGUGAAUCUGCGAAUUCUGCUGU [G17A C35U], for which the self-cleavage amounted to 0.345.

For GGGGGCCACAGCAGAAACGUUCACGUCCCGGCCCCUGUCAGAUUCUGGUGAAUCUGCGAAUUCUGCUGU [G17A G28C], the self-cleavage turned out to be 0.0891.

Turning to GGGGGCCACAGCAGAUGCGUUCACGUCGUGGCCCCUGUCAGAUUCUGGUGAAUCUGCGAAUUCUGCUGU [A16U C29U], the self-cleavage is 0.117.

On to GGGGGCCACAGCAGAUGUGUUCACGUCGCGGCCCCUGUCAGAUUCUGGUGAAUCUGCGAAUUCUGCUGU [A16U C18U], for which the self-cleavage turned out to be 0.301.

On to GGGGGCCACAGCAGAUGGGUUCACGUCGCGGCCCCUGUCAGAUUCUGGUGAAUCUGCGAAUUCUGCUGU [A16U C18G], for which the self-cleavage amounted to 0.167.

In the case of GGGGGCCACAGCAGAAACGUUCACGUCGCGGCCGCUGUCAGAUUCUGGUGAAUCUGCGAAUUCUGCUGU [G17A C34G], the self-cleavage was determined as 0.197.

As to GGGGGCCACAGCAGAAACGUUCACGUCGCGGACCCUGUCAGAUUCUGGUGAAUCUGCGAAUUCUGCUGU [G17A C32A], the self-cleavage turned out to be 0.164.

As for GGGGGCCACAGCAGAUGCGUUCACGUCGCGGCCCCUGUCAGAUUCUGGUGAACCUGCGAAUUCUGCUGU [A16U U53C], the self-cleavage stood at 0.66.

As to GGGGGCCACAGCAGAAACGUUCACGUCGCGGCCCCUGUCAGAUUCUGGUGAAUCUGCGCAUUCUGCUGU [G17A A59C], the self-cleavage came to 0.308.

For the variant GGGGGCCACAGCAGAAACGUUCACGUCGCGGCCCCUGUCAGAUUCUGGUGAAUCUGCGUAUUCUGCUGU [G17A A59U], the self-cleavage stood at 0.246.

Regarding GGGGGCCACAGCAGAUGCGUUCACGUCGCGGCCCCUGUCAGAUUCUGGUGAAUCUGCGAAUUCUGCUAU [A16U G68A], the self-cleavage worked out at 0.953.

Regarding GGGGGCCACAGCAGAUGCGUUCACGUCGCGGCCCCUCUCAGAUUCUGGUGAAUCUGCGAAUUCUGCUGU [A16U G37C], the self-cleavage was 0.0966.

Take GGGGGCCACAGCAGAAACGUUCACGUCGCGGCCCCUGUCAGAUUCUGGUGAAUCUGCGAAUUUUGCUGU [G17A C63U]: the self-cleavage was 0.313.

Take GGGGGCCACAGCAGAAACGUUCAUGUCGCGGCCCCUGUCAGAUUCUGGUGAAUCUGCGAAUUCUGCUGU [G17A C24U]: the self-cleavage came to 0.142.

GGGGGCCACAGCAGAUGCGUUCACGUCGCGGCCCCUGUCAGAUUCUGGUGAAUCUGAGAAUUCUGCUGU [A16U C57A]: the self-cleavage came to 0.293.

With GGGGGCCACAGCAGAUGCGUUCACGUCGCGGCCCCUGUCAGAUUCAGGUGAAUCUGCGAAUUCUGCUGU [A16U U46A], the self-cleavage was found to be 0.866.

Consider GGGGGCCACAGCAGAUGCGUUCACGUCGCGGCCCCUGUCAGAUUCGGGUGAAUCUGCGAAUUCUGCUGU [A16U U46G], for which the self-cleavage was found to be 0.78.

As to GGGGGCCACAGCAGAUGCGUUCACUUCGCGGCCCCUGUCAGAUUCUGGUGAAUCUGCGAAUUCUGCUGU [A16U G25U], the self-cleavage was 0.134.

GGGGGCCACAGCAGAUGCGUUCACAUCGCGGCCCCUGUCAGAUUCUGGUGAAUCUGCGAAUUCUGCUGU [A16U G25A]: the self-cleavage was 0.206.

GGGGGCCACAGCAGAUGCGUUCACGUCGCGGCCCCGGUCAGAUUCUGGUGAAUCUGCGAAUUCUGCUGU [A16U U36G]: the self-cleavage worked out at 0.111.

Consider GGGGGCCACAGCAGAUGCGUUCACGUCGCGGCCCCUGUCAGAUUCUGGUGAAUGUGCGAAUUCUGCUGU [A16U C54G], for which the self-cleavage was found to be 0.662.

With GGGGGCCACAGCAGAUGCGUUCACGUCGCGGCCCCUGUCAGAUUCUGGUGAAUUUGCGAAUUCUGCUGU [A16U C54U], the self-cleavage is 0.895.

With GGGGGCCACAGCAGAUGCGUUCACGUCGCGGCCCCUGUCAGAUUCUGGUGAAUAUGCGAAUUCUGCUGU [A16U C54A], the self-cleavage is 0.637.

As to GGGGGCCACAGCAGAUGCGUUUACGUCGCGGCCCCUGUCAGAUUCUGGUGAAUCUGCGAAUUCUGCUGU [A16U C22U], the self-cleavage was 0.168.

GGGGGCCACAGCAGAUGCGUUGACGUCGCGGCCCCUGUCAGAUUCUGGUGAAUCUGCGAAUUCUGCUGU [A16U C22G]: the self-cleavage is 0.161.

Regarding GGGGGCCACAGCAGAUGCGUUCACGUCGCGGCCCCUGUCAGAUGCUGGUGAAUCUGCGAAUUCUGCUGU [A16U U44G], the self-cleavage was determined as 0.767.

In the case of GGGGGCCACAGCAGAUCCGUUCACGUCGCGGCCCCUGUCAGAUUCUGGUGAAUCUGCGAAUUCUGCUGU [A16U G17C], the self-cleavage is 0.193.

Consider GGGGGCCACAGCAGAUGCCUUCACGUCGCGGCCCCUGUCAGAUUCUGGUGAAUCUGCGAAUUCUGCUGU [A16U G19C], for which the self-cleavage amounted to 0.112.

For the variant GGGGGCCACAGCAGAAACGUUCACGUCGCGGCCCCUGUCAGAUUCUGGUGAAUCUGCGAAUUCUGCUGU [G17A], the self-cleavage worked out at 0.592.

Consider GGGGGCCACAGCAGAAACGUUCACGUCGGGGCCCCUGUCAGAUUCUGGUGAAUCUGCGAAUUCUGCUGU [G17A C29G], for which the self-cleavage is 0.749.

In the case of GGGGGCCACAGCAGAUGCGUUCACGUCGCGGCCCCUGUCAAAUUCUGGUGAAUCUGCGAAUUCUGCUGU [A16U G41A], the self-cleavage was found to be 0.411.

With GGGGGCCACAGCAGAUGCGUUCACGUCGCGGCCCCUGUCAUAUUCUGGUGAAUCUGCGAAUUCUGCUGU [A16U G41U], the self-cleavage was 0.497.

Take GGGGGCCACAGCAGAAAUGUUCACGUCGCGGCCCCUGUCAGAUUCUGGUGAAUCUGCGAAUUCUGCUGU [G17A C18U]: the self-cleavage was found to be 0.122.
